The values that follow come from patent publication US20210063414A1 (Dana-Farber, published 2021).

Assay [1] concerns the target T1, Integrin beta-1 (Itgb1) of MLO-Y4 cells (mouse, UniProt P09055 21-798).
T1 construct: whole, on cells; Endogenous protein of the mouse osteocyte-like cell line, cross-linked on intact cells; also called β1 integrin; integrin β1
Description: DTSSP cross-linking of his-tag ligand on MLO-Y4 cells, his-tag pull-down, TMT quantitative mass spectrometry; ratio to his-tag adipsin control.
Description: (§1) Cells were homogenized and immunoprecipitated using 6 his-tag agarose after treatment of DTSSP cross-linker. Immunoprecipitated proteins were labeled with TMT and analyzed by mass spectrometer.
(§2) A chemical cross-linker was then added and incubated with cells, and the ligands were re-purified with (presumptive) cellular proteins covalently attached. The cross-links were then reversed and the products were subjected to quantitative Mass Spectrometry (FIG. 2A).

Assay [2] has as its target T1, Integrin beta-1 (Itgb1) of MLO-Y4 cells. Description: DTSSP cross-linking on MLO-Y4 cells, his-tag pull-down, TMT mass spectrometry; irisin channel.
Description: as §1, §2
For assay [3], the target named is T2, Integrin alpha-V (Itgav) of MLO-Y4 cells (mouse, UniProt P43406 31-1044).
T2 construct: whole, on cells
T2 sequence (looked up): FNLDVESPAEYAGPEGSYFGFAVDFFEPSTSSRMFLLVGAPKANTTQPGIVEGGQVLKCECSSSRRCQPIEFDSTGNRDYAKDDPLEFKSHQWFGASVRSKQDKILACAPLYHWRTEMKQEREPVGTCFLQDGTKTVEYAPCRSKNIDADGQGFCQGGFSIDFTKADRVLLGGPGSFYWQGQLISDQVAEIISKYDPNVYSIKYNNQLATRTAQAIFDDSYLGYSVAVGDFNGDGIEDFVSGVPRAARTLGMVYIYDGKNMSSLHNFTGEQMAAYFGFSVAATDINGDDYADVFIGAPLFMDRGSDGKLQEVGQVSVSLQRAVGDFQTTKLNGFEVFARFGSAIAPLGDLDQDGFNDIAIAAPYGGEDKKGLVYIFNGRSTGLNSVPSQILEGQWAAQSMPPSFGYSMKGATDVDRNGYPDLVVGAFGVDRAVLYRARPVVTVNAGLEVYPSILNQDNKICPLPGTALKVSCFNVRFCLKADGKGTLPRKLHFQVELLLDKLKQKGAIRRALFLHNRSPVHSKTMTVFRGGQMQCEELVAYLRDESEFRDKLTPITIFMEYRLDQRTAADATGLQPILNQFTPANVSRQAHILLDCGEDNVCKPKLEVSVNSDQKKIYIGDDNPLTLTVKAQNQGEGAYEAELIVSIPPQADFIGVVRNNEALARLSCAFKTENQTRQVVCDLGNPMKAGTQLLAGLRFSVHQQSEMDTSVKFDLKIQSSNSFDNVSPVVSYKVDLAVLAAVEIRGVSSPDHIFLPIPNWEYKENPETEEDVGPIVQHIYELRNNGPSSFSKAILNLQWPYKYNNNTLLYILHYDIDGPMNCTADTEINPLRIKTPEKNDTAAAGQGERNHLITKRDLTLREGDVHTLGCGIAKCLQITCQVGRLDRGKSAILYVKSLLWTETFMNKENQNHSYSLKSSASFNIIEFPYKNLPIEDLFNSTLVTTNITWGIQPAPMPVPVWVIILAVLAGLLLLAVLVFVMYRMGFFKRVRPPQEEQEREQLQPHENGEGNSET
Described as above.
Description: as §1, §2

In assay [4] the target is T3, Integrin beta-5 (Itgb5) of MLO-Y4 cells (mouse, UniProt O70309 24-798).
T3 construct: whole, on cells; also called ITB5_MOUSE
T3 sequence (looked up): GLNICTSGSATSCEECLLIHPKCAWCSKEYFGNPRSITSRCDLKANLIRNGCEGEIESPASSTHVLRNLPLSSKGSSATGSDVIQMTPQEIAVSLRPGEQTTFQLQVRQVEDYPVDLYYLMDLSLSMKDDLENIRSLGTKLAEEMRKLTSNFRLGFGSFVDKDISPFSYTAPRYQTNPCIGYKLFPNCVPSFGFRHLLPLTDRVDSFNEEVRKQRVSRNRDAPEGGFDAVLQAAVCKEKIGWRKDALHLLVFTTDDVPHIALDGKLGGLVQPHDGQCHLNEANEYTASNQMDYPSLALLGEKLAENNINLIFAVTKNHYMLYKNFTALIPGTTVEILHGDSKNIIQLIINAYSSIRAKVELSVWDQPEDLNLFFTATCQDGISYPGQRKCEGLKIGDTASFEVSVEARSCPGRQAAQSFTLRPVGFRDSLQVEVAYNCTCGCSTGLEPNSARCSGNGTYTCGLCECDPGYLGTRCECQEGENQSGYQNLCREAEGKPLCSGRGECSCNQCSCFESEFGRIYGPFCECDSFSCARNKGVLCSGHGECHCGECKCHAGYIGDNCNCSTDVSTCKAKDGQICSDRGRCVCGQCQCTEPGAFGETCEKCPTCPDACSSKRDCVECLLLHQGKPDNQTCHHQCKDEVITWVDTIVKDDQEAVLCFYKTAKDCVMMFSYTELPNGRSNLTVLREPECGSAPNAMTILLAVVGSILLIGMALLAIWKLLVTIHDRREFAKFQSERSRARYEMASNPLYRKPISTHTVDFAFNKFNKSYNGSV
The description is as above.
Description: as §1, §2

Assay [5] concerns the target T2, Integrin alpha-V (Itgav) of MLO-Y4 cells. Description: DTSSP cross-linking on MLO-Y4 cells, his-tag pull-down, TMT mass spectrometry; ratio to his-tag adipsin control.
Description: as §1, §2
The target in assay [6] is T3, Integrin beta-5 (Itgb5) of MLO-Y4 cells. The description is as above.
Description: as §1, §2

T1 sequence (P09055 21-798): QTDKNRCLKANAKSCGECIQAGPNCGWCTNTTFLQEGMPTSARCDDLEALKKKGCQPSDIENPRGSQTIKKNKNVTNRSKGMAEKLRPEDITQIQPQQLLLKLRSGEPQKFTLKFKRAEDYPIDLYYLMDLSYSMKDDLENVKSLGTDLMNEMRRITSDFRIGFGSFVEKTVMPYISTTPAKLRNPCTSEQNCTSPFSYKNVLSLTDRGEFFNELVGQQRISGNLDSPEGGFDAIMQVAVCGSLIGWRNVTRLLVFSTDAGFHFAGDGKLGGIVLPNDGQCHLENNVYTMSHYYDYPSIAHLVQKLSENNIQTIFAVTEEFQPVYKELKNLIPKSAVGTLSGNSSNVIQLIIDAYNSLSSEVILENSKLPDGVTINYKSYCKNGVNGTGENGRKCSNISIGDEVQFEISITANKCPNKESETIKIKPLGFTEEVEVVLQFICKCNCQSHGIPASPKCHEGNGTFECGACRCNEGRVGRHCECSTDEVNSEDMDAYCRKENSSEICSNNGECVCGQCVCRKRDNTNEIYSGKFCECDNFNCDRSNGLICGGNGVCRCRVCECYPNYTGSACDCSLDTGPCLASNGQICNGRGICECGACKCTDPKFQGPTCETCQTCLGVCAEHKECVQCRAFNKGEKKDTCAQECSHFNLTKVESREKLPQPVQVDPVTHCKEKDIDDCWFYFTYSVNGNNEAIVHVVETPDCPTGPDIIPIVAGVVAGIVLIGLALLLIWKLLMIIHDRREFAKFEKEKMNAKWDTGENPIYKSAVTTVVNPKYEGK

B1: His-tag recombinant irisin (irisin (human/mouse) with a C-terminal 10 his tag, produced in HEK293 cells) (ligand)
chain: DSPSAPVNVTVRHLKANSAVVSWDVLEDEVVIGFAISQQKKDVRMLRFIQEVNTTTRSCALWDLEEDTEYIVHVQAISIQGQSPASEPVLFKTPREAEKMASKNKDEVTMKE
notes: Made in mammalian cells, glycosylated; Used in cell culture and cross-linking experiments; also called 10 His-tag irisin; his-tag irisin; not shown: C-terminal 10 his tag
For the molecule B1, the “irsin/adipsin (TMT ratio)” value in assay [1] was 3.44. In addition, the “summed signal-to-noise value for TMT channel” value was determined as 858 in assay [2], 60.6 in assay [3] and 215 in assay [4]. Moreover, the “irisin/adipsin (TMT ratio)” value was determined as 1.11 in assay [5] and 1.45 in assay [6].
